# Test results reported in patent US20150037339A1 (Regeneron, published 2015).
# T1: Activin B (human, UniProt P09529 293-407)
# T1 chain: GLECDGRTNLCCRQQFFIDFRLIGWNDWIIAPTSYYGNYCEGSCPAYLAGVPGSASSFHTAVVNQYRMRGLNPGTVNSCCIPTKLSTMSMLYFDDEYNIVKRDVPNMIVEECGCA
# T2: Activin AC (human, UniProt P55103 237-352)
# T2 sequence 1: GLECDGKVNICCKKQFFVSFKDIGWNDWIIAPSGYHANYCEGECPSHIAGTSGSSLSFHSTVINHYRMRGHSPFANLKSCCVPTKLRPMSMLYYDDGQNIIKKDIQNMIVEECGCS
# T2 sequence 2: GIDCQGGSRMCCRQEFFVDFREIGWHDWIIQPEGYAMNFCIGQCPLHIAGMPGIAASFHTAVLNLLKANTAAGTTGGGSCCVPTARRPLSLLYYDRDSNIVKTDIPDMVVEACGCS
# T3: Activin A (human, UniProt P08476 311-426)
# T3 sequence: T2 sequence 1
# T4: Activin AB (human, UniProt P08476 311-426; P09529 293-407)
# T4 chain 1: T2 sequence 1
# T4 chain 2: T1 chain
# T5: hBMP6 (human, UniProt P22004 382-513, limits assumed)
# T5 construct: Bought protein
# T5 sequence (looked up): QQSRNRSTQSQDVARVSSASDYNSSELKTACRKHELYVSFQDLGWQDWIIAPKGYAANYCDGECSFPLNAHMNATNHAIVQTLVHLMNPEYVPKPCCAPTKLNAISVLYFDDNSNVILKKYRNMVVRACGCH
# T6: hBMP10 (human, UniProt O95393 317-424)
# T6 construct: Bought protein
# T6 sequence (looked up): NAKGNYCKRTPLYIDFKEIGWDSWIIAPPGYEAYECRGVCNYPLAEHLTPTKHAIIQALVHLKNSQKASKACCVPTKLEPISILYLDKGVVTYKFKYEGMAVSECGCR
# T7: hBMP9 (human, UniProt Q9UK05 320-429)
# T7 construct: Bought protein
# T7 sequence (looked up): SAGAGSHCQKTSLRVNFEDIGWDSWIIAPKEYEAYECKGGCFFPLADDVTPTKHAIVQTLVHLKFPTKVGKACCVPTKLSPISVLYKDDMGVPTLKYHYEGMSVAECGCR
# T8: hBMP4 (human, UniProt P12644 293-408)
# T8 construct: Bought protein
# T8 sequence (looked up): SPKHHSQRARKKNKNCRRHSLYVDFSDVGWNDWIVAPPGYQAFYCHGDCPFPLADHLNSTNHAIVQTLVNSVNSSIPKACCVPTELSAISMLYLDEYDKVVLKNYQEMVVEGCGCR
# B1: H4H10429P (antibody, human IgG4, V domains shown)
# VH: QVQLVESGGGVVQPGRSLRLSCVASGFTVSSYGIHWVRQAPGKGLEWVSVIWYDGRNKDYADSVKGRFTISRDNSKNTVYLEMKGLRAEDTALYYCARDKTGDFDSWGQGTLVTVSS
# VL: DIQMTQSPSSLSASVGDRVTITCRASQNINSFLSWYQQKPGKAPKFLIYDASSIQSGAPSRFSGSGSGTDFTLTISSLQPEDFATYYCQQSYSSPFTFGQGTKLEIK
# Columns and labels:
# Activin B [1] = target: T1, Activin B; test: cell-based or functional assay
# Activin AC [2] = target: T2, Activin AC; test: cell-based or functional assay
# Activin A [3] = target: T3, Activin A; test: cell-based or functional assay
# Activin AB [4] = target: T4, Activin AB; test: cell-based or functional assay
# hBMP6 = target: T5, hBMP6; test: SPR (Biacore 4000), captured on anti-human Fc, 200 nM ligand injected, 37 C
# Procedure: (§1) For the binding experiment, a Biacore 4000 instrument was used. […] All Biacore binding studies were performed in HBS-T running buffer (0.01 M HEPES pH 7.4, 0.5 M NaCl, 3 mM EDTA, 0.5 mg/ml bovine serum albumin, 0.05% v/v Surfactant P20). […] All binding measurements were performed at 37° C. […] Over the captured antibody surface was injected the TGF-beta family ligands through concentrations ranging from 3.1 nM to 200 nM.
# Activin B [5] = target: T1, Activin B; test: as above
# Procedure: as §1
# hBMP10 = target: T6, hBMP10; test: as above
# Procedure: as §1
# hBMP9 = target: T7, hBMP9; test: as above
# Procedure: as §1
# GDF11 = target: T9, GDF11 (human, UniProt O95390 299-407); test: as above
# T9 construct: Bought protein; also called hGDF11
# Procedure: as §1
# Activin AC [6] = target: T2, Activin AC; test: as above
# Procedure: as §1
# hBMP2 = target: T10, hBMP2 (human, UniProt P12643 283-396); test: as above
# T10 construct: Bought protein; also called BPM2
# Procedure: as §1
# hBMP4 = target: T8, hBMP4; test: as above
# Procedure: as §1
# Activin A [7] = target: T3, Activin A; test: as above
# Procedure: as §1
# GDF8 = target: T11, GDF8 (human, UniProt O14793 267-375); test: as above
# T11 construct: Bought (R&D Systems #788-G8); also called hGDF8; growth and differentiation factor-8
# Procedure: as §1
# Activin AB [8] = target: T4, Activin AB; test: as above
# Procedure: as §1
# Activin AB [9] = target: T4, Activin AB; test: SPR (Biacore), mAb captured on anti-Fc, Activin AB injected, 25 C
# Procedure, shortened: (§2)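 Reported half-lives follow ln2/(60*kd) in minutes, with KD taken as kd/ka. Both rest on fits to binding data from 240 s of association and 600 s of buffer dissociation.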
# Activin AC [10] = target: T2, Activin AC; test: SPR (Biacore), mAb captured on anti-Fc, Activin AC injected, 37 C
# Procedure, shortened: as §2
# Activin AC [11] = target: T2, Activin AC; test: SPR (Biacore), mAb captured on anti-Fc, Activin AC injected, 25 C
# Procedure, shortened: as §2
# Activin AB [12] = target: T4, Activin AB; test: SPR (Biacore), mAb captured on anti-Fc, Activin AB injected, 37 C
# Procedure, shortened: as §2
# T10 sequence (P12643 283-396 limits assumed): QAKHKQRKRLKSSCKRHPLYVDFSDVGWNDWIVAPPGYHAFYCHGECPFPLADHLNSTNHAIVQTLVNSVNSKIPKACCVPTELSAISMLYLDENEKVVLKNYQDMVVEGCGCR
# T9 sequence (O95390 299-407 limits assumed): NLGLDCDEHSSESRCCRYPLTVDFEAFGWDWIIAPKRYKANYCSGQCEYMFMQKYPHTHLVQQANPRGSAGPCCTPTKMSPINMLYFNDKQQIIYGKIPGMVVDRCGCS
binder,measurement,setting,value
B1,"IC50 [M], inhibition of 50 pM Activin B in A204/CAGAx12-Luc Smad2/3-luciferase bioassay",Activin B [1],7.9e-08 M
same,"IC50 [M], inhibition of 4 nM Activin AC in A204/CAGAx12-Luc Smad2/3-luciferase bioassay",Activin AC [2],5.8e-10 M
same,"IC50 [M], inhibition of 100 pM Activin A in A204/CAGAx12-Luc Smad2/3-luciferase bioassay",Activin A [3],1.6e-10 M
same,"IC50 [M], inhibition of 30 pM Activin AB in A204/CAGAx12-Luc Smad2/3-luciferase bioassay",Activin AB [4],2.9e-10 M
same,binding response (resonance units) for 200 nM ligand,hBMP6,4.6 RU
same,binding response (resonance units) for 200 nM ligand,Activin B [5],51.5 RU
same,binding response (resonance units) for 200 nM ligand,hBMP10,32.4 RU
same,binding response (resonance units) for 200 nM ligand,hBMP9,33.4 RU
same,binding response (resonance units) for 200 nM ligand,GDF11,1.6 RU
same,binding response (resonance units) for 200 nM ligand,Activin AC [6],43.1 RU
same,binding response (resonance units) for 200 nM ligand,hBMP2,3.6 RU
same,binding response (resonance units) for 200 nM ligand,hBMP4,1.1 RU
same,binding response (resonance units) for 200 nM ligand,Activin A [7],56.8 RU
same,binding response (resonance units) for 200 nM ligand,GDF8,-0.4 RU
same,binding response (resonance units) for 200 nM ligand,Activin AB [8],76.5 RU
same,50 nM Ag Bound (RU),Activin AB [9],40 RU
same,Kd,Activin AB [9],0.0228 nM
same,koff,Activin AB [9],0.000103 s⁻¹
same,kon,Activin AB [9],4.53e+06 M⁻¹ s⁻¹
same,t1/2,Activin AB [9],1.86 h
same,50 nM Ag Bound (RU),Activin AC [10],35.7 RU
same,Kd,Activin AC [10],0.462 nM
same,koff,Activin AC [10],0.00062 s⁻¹
same,kon,Activin AC [10],1.34e+06 M⁻¹ s⁻¹
same,t1/2,Activin AC [10],0.31 h
same,50 nM Ag Bound (RU),Activin AC [11],28 RU
same,Kd,Activin AC [11],0.0997 nM
same,koff,Activin AC [11],9.1e-05 s⁻¹
same,kon,Activin AC [11],913000 M⁻¹ s⁻¹
same,t1/2,Activin AC [11],2.12 h
same,50 nM Ag Bound (RU),Activin AB [12],50 RU
same,Kd,Activin AB [12],0.0755 nM
same,koff,Activin AB [12],0.000488 s⁻¹
same,kon,Activin AB [12],6.47e+06 M⁻¹ s⁻¹
same,t1/2,Activin AB [12],0.393 h
